Assay results taken from patent US20260242478A1 (published 2026).

Columns and labels:
[1] = target: T1, 006 PSMA Fab; assay: clonal phage ELISA; biotinylated PSMA Fab on neutravidin plate, bound phage detected with anti-M13-HRP
T1 construct: also called Anti-PSMA Fab
Experimental: (§1) Clonal phage were harvested as crude supernatants and screened via standard ELISAs. […] Prior to the addition of clonal phage. wells were incubated with blocking buffer and PSMA antigen or blocking buffer alone. Without washing or aspirating, clonal phage supernatants were then added to the wells and incubated for a short time. Wells were then washed followed by detection of bound phage using a horse radish conjugated anti-M13 antibody.

[2] = target: T1, 006 PSMA Fab; assay: clonal phage ELISA; biotinylated PSMA Fab on neutravidin plate, PSMA antigen as competitor, anti-M13-HRP
Experimental: as §1

[3] = target: T2, PSMA Fab; assay: phage ELISA; biotinylated PSMA Fab on neutravidin plate, pre-incubated with PSMA antigen as competitor; anti-M13-HRP
T2 construct: Used biotinylated and captured on neutravidin plates in the phage ELISA; also called Anti-PSMA Fab; 006 PSMA Fab
Experimental: as §1

[4] = target: T2, PSMA Fab; assay: phage ELISA; biotinylated PSMA Fab on neutravidin plate, blocking buffer alone; bound phage detected with anti-M13-HRP
Experimental: as §1

| Binder | Phage binding ELISA signal, Anti-PSMA Fab [1] | phage binding ELISA signal (Anti-PSMA Fab, wells pre-incubated with PSMA antigen) [2] | Phage binding ELISA signal, Anti-PSMA Fab in presence of PSMA antigen [3] | Phage binding ELISA signal, Anti-PSMA Fab [4] |
| --- | --- | --- | --- | --- |
| DIEVCRPHWMCEGF [Phage-4003] | 0.542 | 0.0801 |  |  |
| MDVWCVPTWMCQHL [Phage-3995] | 0.627 | 0.119 |  |  |
| GTQACVPLWMCEGI [Phage-3996] | 0.62 | 0.0787 |  |  |
| DGLICQPSWMCTGL [Phage-4001] | 0.554 | 0.0705 |  |  |
| EVKKCVPAWMCESQ [Phage-4004] | 0.542 | 0.0538 |  |  |
| QMITCQPKWMCEGF [Phage-3998] | 0.589 | 0.0852 |  |  |
| GPKLCLPMWMCQGF [Phage-4009] | 0.459 | 0.0611 |  |  |
| LTSWCVPQWMCDGL [Phage-4005] | 0.523 | 0.0623 |  |  |
| MTNMCRPSWMCAVF [Phage-4002] | 0.551 | 0.108 |  |  |
| QEMTCVPRWMCSGF [Phage-4000] | 0.566 | 0.0832 |  |  |
| VQPWCVPSWMCERF (also called Peptide-180 library clone) [Phage-3743] |  |  | 0.312 | 1.39 |
| VQPWCVPAWMCDGL [Phage-3997] | 0.607 | 0.0983 |  |  |
| YSISCVPQWMCEGF (also called Peptide-180 library clone) [Phage-3742] |  |  | 0.0591 | 1.39 |
| PTSFCRPPWMCEGL [Phage-4007] | 0.475 | 0.0592 |  |  |
| IMQRCEPLWMCSGL [Phage-4008] | 0.471 | 0.0777 |  |  |
| VQRVCVPTWMCDVF [Phage-3999] | 0.584 | 0.07 |  |  |
| HVTMCSPNWMCWGL [Phage-4006] | 0.485 | 0.0703 |  |  |
